# According to patent publication US20180002415A1 (Chugai, published 2018):
# T1: recombinant cynomolgus monkey C5 (cynomolgus monkey, UniProt P01031 20-1676 (human entry), limits assumed)
# T1 construct: also called cynoC5
# T1 chain: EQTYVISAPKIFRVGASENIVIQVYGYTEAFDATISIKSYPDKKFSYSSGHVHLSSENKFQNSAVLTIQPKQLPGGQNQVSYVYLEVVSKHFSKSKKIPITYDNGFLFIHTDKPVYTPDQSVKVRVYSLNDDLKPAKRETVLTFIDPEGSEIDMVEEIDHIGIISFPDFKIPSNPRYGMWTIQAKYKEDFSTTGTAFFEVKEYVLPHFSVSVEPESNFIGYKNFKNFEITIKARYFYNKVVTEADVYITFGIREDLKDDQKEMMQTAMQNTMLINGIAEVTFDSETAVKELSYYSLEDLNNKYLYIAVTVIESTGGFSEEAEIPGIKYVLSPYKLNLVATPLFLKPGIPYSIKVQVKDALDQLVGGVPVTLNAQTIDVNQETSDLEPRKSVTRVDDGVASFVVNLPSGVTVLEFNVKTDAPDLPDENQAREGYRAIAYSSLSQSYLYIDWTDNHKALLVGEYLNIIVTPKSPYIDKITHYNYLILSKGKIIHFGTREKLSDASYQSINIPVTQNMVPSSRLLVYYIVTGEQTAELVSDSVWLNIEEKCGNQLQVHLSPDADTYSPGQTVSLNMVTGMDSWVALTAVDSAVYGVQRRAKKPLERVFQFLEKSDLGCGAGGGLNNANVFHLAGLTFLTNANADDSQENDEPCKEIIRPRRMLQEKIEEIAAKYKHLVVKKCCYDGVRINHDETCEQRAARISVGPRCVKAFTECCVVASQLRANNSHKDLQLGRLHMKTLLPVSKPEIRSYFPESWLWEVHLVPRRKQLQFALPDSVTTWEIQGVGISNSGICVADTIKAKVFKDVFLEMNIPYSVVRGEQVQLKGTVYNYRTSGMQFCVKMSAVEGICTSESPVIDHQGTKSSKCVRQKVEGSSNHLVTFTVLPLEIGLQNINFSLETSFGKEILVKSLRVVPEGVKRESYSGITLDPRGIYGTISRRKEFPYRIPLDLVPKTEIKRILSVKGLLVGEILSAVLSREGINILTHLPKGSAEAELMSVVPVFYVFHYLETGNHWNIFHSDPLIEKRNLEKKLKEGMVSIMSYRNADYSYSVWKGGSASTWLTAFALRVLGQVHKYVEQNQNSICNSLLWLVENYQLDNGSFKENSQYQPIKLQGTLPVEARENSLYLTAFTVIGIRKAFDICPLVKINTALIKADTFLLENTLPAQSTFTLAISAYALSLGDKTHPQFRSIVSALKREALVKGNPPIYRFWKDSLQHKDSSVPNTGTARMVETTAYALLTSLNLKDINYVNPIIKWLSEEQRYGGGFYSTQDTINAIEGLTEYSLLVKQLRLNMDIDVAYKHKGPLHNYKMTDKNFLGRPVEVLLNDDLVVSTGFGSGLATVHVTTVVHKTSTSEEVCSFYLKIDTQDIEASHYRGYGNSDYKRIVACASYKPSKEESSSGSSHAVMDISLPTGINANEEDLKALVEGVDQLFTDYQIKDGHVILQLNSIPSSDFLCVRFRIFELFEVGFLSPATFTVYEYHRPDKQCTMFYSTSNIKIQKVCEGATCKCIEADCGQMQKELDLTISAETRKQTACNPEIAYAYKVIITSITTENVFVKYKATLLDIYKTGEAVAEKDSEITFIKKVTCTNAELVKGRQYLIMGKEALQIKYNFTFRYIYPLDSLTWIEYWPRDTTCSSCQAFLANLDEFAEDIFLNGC
# T2: 161-340
# T2 construct: Expressed in E. coli
# T2 GST fusion polypeptide: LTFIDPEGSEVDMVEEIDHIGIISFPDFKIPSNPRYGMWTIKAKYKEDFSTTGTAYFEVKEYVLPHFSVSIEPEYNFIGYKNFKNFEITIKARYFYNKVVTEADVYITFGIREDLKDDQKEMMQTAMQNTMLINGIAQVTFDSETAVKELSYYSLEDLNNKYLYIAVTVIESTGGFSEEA
# T3: 321-500
# T3 construct: Expressed in E. coli
# T3 GST fusion polypeptide: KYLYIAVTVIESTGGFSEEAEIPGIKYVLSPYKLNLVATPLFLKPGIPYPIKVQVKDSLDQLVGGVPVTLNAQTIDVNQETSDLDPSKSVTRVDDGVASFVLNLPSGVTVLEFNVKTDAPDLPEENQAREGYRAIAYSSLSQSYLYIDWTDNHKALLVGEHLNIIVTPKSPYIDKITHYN
# T4: 481-660
# T4 construct: Expressed in E. coli
# T4 GST fusion polypeptide: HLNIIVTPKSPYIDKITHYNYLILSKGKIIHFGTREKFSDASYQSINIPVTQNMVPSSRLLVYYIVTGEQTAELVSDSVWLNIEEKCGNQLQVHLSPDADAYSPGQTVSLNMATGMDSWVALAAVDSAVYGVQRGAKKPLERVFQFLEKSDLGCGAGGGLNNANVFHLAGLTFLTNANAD
# B1: CFA0305 (antibody, V domains shown)
# VH: QSLEESGGDLVKPGASLAVTCTASGFSSSSSYYMCWVRQAPGKGLEWIGCIYTGSGATYYASWAKGRFTISKTSSTTVTLQMTSLTVADTATYFCASDGGYVTPTHAMYLWGPGTLVTVSS
# VL: DVVMTQTPASVSAAVGGTVTIKCQASQNIGSDLAWYQQKPGQPPRLLIYGASKLASGVSSRFSGSGSGKEFTLTISDLECADAVTYYCQCTFVGSSYGNAFGGGTEVVVK
# notes: Chimeric, rabbit V regions; also called CFA0305-F760G4
# B2: CFA0672 (antibody, V domains shown)
# VH: QSVEESGGRLVTPGTPLTLTCTASGFSLSGNAINWVRQAPGKGLEWIGCIYTGSDTTYYATWAKGRFTISKTSTTVDLKIASPTTEDTATYFCARGSGLWGPGTLVTVSS
# VL: DVVMTQTPASVSAPVGGTVTIKCQASQNIYSLLAWYQQKPGQPPKLLIYHTSDLASGVPSRFRGSGSGTEFTLTISDLECADAATYYCQCTAYGSSDVGGTFGGGTTVVVE
# notes: Chimeric, rabbit V regions; also called CFA0672-F760G4
# B3: CFA0366 (antibody, V domains shown)
# VH: QSLEESGGDLVKPGASLSLTCTAAGLDFSSSYYMCWVRQAPGKGLEWIACIYAGSSGIIYYANWAKGRFTISRPSSTTVTLQMTSLTAADTATYFCATYPTYGDGGHAFNLWGPGTLVTVSS
# VL: AQVLTQTPSSVSAAVGGTVTINCQSSQSVYSSDYLSWYQQKPGQPPKLLIYEASKLASGVPPRFSGSGSGTQFTLTISGVQCDDAATYYCQGTYYSSGWYFAFGGGTEVVVK
# notes: Chimeric, rabbit V regions; also called CFA0366-F760G4
# Key:
# [1] = biological target: T1, recombinant cynomolgus monkey C5; assay: SPR (Biacore), 37C, pH 7.4, Ab captured on ProA/G
# Procedure: (§1) To observe the cross-reactivity of anti-C5 antibodies against human C5 (hC5) and cynomolgus monkey C5 (cynoC5), BIACORE® kinetics analysis was performed.
# [2] = biological target: T2, 161-340; assay: Western blot of E. coli lysates expressing GST-fused C5 beta-chain fragments
# Procedure: (§2) Anti-C5 monoclonal antibodies (MAbs) were tested for binding to C5 β-chain-derived peptides in Western blot analysis. […] The E. coli samples were harvested after incubation with 1 mM Isopropyl β-D-1-thiogalactopyranoside (IPTG) for 5 hours at 37° C., and centrifuged at 20000×g for 1 min to obtain pellets.
# [3] = biological target: T3, 321-500; assay: as above
# Procedure: as §2
# [4] = biological target: T4, 481-660; assay: as above
# Procedure: as §2
# [5] = biological target: T5, C5 peptide 33-108 fused to GST-tag (human, UniProt P01031 33-108); assay: Western blot of E. coli lysates expressing GST-fused MG1-MG2-derived fragments; rhC5 (0.5 ug) as control lane
# T5 construct: not shown: GST-tag (glutathione S-transferase); vector and linker not restated
# [6] = biological target: T6, C5 peptide 45-111 fused to GST-tag (human, UniProt P01031 45-111); assay: as above
# T6 construct: not shown: GST-tag (glutathione S-transferase); vector and linker not restated
# [7] = biological target: T7, C5 peptide 45-124 fused to GST-tag (human, UniProt P01031 45-124); assay: as above
# T7 construct: not shown: GST-tag (glutathione S-transferase); vector and linker not restated
# [8] = biological target: T8, C5 peptide 52-124 fused to GST-tag (human, UniProt P01031 52-124); assay: as above
# T8 construct: not shown: GST-tag (glutathione S-transferase); vector and linker not restated
# [9] = biological target: T9, C5 peptide 33-111 fused to GST-tag (human, UniProt P01031 33-111); assay: as above
# T9 construct: not shown: GST-tag (glutathione S-transferase); vector and linker not restated
# [10] = biological target: T1, recombinant cynomolgus monkey C5; assay: SPR (Biacore), 37C, pH 7.4
# Procedure: as §1
# [11] = biological target: T1, recombinant cynomolgus monkey C5; assay: SPR (Biacore), pH 7.4; KD on cynoC5 against KD on hC5
# Procedure: as §1
# [12] = biological target: T5, C5 peptide 33-108 fused to GST-tag; assay: summary drawing of the binding reactions to C5 beta-chain fragments
# [13] = biological target: T6, C5 peptide 45-111 fused to GST-tag; assay: as above
# [14] = biological target: T7, C5 peptide 45-124 fused to GST-tag; assay: as above
# [15] = biological target: T8, C5 peptide 52-124 fused to GST-tag; assay: as above
# [16] = biological target: T9, C5 peptide 33-111 fused to GST-tag; assay: as above
# [17] = biological target: T2, 161-340; assay: as above
# [18] = biological target: T3, 321-500; assay: as above
# [19] = biological target: T4, 481-660; assay: as above
# T9 sequence (P01031 33-111): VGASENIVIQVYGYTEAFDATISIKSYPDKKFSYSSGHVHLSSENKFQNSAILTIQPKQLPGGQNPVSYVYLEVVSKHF
# T7 sequence (P01031 45-124): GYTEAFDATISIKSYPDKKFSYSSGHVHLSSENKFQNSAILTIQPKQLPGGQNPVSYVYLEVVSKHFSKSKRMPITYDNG
# T5 sequence (P01031 33-108): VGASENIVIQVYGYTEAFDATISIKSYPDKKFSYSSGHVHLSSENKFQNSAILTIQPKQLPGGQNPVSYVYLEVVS
# T6 sequence (P01031 45-111): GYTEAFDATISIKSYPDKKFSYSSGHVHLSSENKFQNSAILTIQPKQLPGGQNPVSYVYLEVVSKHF
# T8 sequence (P01031 52-124): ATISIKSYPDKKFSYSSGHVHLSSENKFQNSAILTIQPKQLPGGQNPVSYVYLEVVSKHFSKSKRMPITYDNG
Binder,Kd [1] [nM],binding result [2],binding result [3],binding result [4],binding result [5],binding result [6],binding result [7],binding result [8],binding result [9],fold weaker KD toward cynoC5 than toward hC5 [10] [fold],fold weaker KD toward cynoC5 than toward hC5 [11] [times],binding result [12],binding result [13],binding result [14],binding result [15],binding result [16],binding result [17],binding result [18],binding result [19]
B1,55.4,no binding,no binding,no binding,no binding,no binding,no binding,no binding,no binding,,,,,,,,,,
B2,2.88,no binding,no binding,no binding,,,,,,8,8,no binding,no binding,no binding,no binding,no binding,,,
B3,17.9,,,,,,,,,,,no binding,no binding,no binding,no binding,no binding,no binding,no binding,no binding
